pKd data for three molecules are collected here from publication PMC9482650, “Quantitative fragmentomics allow affinity mapping of interactomes” (Nature Communications, 2022).

Targets include RGS3, P49796-9; NHERF2_1, Q15599; PARD3_1, Q8TEW0; MAGI1_5, Q96QZ7; PDLIM4, P50479; PARD3B_2, Q8TEW8; GRIP2_2, Q9C0E4; GIPC3, Q8TF64; PTPN13_2, Q12923.
What all share (assay): holdup assay
Design in all cases: key: below the threshold = too weak to quantify, mostly under pKd 3.1 to 4
What all share (conditions): plain residues with an end cap or a label only (N-terminal biotin on a linker: ttds)

Another experiment has as its target T1, APBA3_2, O96018.
T1 sequence (O96018 480-570, limits assumed, looked up): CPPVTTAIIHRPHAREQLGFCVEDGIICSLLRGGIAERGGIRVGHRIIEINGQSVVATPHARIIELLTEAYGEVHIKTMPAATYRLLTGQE

The target in a further experiment is T2, PDZD7_1, Q9H5P4.
T2 sequence (Q9H5P4 81-178, limits assumed, looked up): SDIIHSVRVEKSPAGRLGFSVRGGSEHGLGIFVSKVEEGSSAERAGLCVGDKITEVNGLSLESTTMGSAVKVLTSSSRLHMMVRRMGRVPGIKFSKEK

In a further experiment the target is T3, PDZD2_5, O15018.
T3 sequence (O15018 2617-2716, limits assumed, looked up): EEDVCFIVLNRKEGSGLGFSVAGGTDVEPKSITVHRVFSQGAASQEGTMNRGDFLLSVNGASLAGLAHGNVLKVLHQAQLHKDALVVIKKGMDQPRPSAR

A further experiment deals with T4, PTPN13_4, Q12923.
T4 sequence (Q12923 1783-1878, limits assumed, looked up): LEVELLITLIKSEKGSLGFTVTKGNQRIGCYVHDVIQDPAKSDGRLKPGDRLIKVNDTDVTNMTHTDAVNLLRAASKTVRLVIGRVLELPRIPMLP

In another experiment the target is T5, SHROOM3, Q8TF72.
T5 sequence (Q8TF72 20-120, limits assumed, looked up): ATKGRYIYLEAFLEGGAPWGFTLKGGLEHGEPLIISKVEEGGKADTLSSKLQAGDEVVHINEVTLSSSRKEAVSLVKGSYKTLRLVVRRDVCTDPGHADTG

The target in a further experiment is T6, TJP3_1, O95049.
T6 sequence (O95049 6-103, limits assumed, looked up): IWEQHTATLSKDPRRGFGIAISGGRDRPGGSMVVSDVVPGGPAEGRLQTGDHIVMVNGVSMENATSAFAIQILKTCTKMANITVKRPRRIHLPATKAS

In a further experiment the target is T7, PDZD4, Q76G19.
T7 sequence (Q76G19 125-224, limits assumed, looked up): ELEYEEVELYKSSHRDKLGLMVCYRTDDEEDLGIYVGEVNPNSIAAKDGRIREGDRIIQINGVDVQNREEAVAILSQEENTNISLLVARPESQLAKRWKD

The target in the next experiment is T8, TJP3_2, O95049.
T8 sequence (O95049 190-282, limits assumed, looked up): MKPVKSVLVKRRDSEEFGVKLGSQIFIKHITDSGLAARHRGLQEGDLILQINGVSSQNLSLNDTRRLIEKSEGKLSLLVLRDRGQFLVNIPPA

A further experiment has as its target T9, RGS12, O14924.
T9 sequence (O14924 17-108, limits assumed, looked up): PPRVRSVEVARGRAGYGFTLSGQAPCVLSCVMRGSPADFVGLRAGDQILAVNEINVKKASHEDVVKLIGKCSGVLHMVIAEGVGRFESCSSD

In the next experiment the target is T10, PDZD2_1, O15018.
T10 sequence (O15018 80-192, limits assumed, looked up): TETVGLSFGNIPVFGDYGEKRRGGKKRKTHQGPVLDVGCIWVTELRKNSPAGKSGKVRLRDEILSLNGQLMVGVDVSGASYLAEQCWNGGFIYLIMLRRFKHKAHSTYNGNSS

In a further experiment the target is T11, SIPA1L3, O60292.
T11 sequence (O60292 961-1052, limits assumed, looked up): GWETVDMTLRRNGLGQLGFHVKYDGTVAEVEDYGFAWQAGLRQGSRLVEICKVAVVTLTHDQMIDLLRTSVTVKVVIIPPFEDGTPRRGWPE

The target in the next experiment is T12, USH1C_2, Q9Y6N9.
T12 sequence (Q9Y6N9 206-303, limits assumed, looked up): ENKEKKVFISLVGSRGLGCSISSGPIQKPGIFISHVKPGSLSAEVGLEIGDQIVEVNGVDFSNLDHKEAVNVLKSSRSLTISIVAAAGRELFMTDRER

A further experiment concerns the target T13, USH1C_1, Q9Y6N9.
T13 sequence (Q9Y6N9 82-179, limits assumed, looked up): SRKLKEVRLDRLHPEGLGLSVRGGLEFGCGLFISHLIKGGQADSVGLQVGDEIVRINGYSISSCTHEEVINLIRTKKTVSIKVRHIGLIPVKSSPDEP

Another experiment has as its target T14, PDZRN3_2, Q9UPQ7.
T14 sequence (Q9UPQ7 414-513, limits assumed, looked up): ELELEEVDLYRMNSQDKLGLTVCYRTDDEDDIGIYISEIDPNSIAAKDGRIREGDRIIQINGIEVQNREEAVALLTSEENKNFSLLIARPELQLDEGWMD

Chain of GRIP2_2, Q9C0E4 (Q9C0E4 137-245): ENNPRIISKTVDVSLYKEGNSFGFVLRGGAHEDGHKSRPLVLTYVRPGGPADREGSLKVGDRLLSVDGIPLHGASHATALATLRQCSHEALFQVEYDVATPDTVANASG
Chain of GIPC3, Q8TF64 (Q8TF64 107-202): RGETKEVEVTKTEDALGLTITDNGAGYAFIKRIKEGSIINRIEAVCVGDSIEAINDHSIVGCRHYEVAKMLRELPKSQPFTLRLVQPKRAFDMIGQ
Chain of NHERF2_1, Q15599 (Q15599 9-91): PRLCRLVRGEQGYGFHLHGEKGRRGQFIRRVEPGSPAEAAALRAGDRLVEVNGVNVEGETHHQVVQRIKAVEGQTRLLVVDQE
Chain of PARD3_1, Q8TEW0 (Q8TEW0 264-372): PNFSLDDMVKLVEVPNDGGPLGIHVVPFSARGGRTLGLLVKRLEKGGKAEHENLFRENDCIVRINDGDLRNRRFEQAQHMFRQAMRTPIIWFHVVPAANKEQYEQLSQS
Chain of PTPN13_2, Q12923 (Q12923 1363-1462): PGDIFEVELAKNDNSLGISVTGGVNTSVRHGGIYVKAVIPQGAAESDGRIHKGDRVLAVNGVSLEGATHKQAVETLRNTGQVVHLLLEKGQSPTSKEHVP
Chain of PDLIM4, P50479 (P50479 1-83): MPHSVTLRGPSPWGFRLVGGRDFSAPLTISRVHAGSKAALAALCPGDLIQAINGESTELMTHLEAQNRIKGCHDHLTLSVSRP
Chain of PARD3B_2, Q8TEW8 (Q8TEW8 376-471): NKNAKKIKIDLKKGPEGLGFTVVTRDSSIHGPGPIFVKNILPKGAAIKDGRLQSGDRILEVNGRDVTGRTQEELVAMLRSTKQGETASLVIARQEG
Chain of RGS3, P49796-9 (P49796 other isoform, or with tags, fused parts or gaps): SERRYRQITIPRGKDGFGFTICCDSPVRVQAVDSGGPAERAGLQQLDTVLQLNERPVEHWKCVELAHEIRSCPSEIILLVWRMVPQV
Chain of MAGI1_5, Q96QZ7 (Q96QZ7 986-1098): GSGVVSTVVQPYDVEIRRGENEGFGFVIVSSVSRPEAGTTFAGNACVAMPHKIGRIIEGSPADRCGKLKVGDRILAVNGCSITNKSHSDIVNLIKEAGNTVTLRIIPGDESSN

As for QSARYRDTEL [TJP2, Q9UDY2], the pKd (commonly the negative decadic logarithm of the Kd, by convention in mol/L) with APBA3_2, O96018 is “below the threshold”; with PDZD7_1, Q9H5P4 it was “below the threshold”; with PDZD2_5, O15018 it was “below the threshold”; in the experiment with PTPN13_4, Q12923 it was “below the threshold”; in the experiment with RGS3, P49796-9, “below the threshold”; with SHROOM3, Q8TF72 it was “below the threshold”. The pKd result with TJP3_1, O95049 was “below the threshold”; with PDZD4, Q76G19 it was “below the threshold”; in the experiment with TJP3_2, O95049, “below the threshold”; with RGS12, O14924, “below the threshold”; with NHERF2_1, Q15599, “below the threshold”; with PDZD2_1, O15018, “below the threshold”. The pKd entry was “below the threshold” in the experiment with PARD3_1, Q8TEW0; “below the threshold” in the experiment with MAGI1_5, Q96QZ7; “below the threshold” with PDLIM4, P50479; “below the threshold” with SIPA1L3, O60292; “below the threshold” with PARD3B_2, Q8TEW8; “below the threshold” with USH1C_2, Q9Y6N9. Besides, the pKd result was “below the threshold” with USH1C_1, Q9Y6N9; “below the threshold” in the experiment with GRIP2_2, Q9C0E4; “below the threshold” with PDZRN3_2, Q9UPQ7; “below the threshold” with GIPC3, Q8TF64; “below the threshold” in the experiment with PTPN13_2, Q12923.
Consider PKTPPTDTSV [KIR3DL3, Q8N743], for which the pKd entry is “below the threshold” with APBA3_2, O96018; “below the threshold” in the experiment with PDZD7_1, Q9H5P4; “below the threshold” with PDZD2_5, O15018; “below the threshold” with PTPN13_4, Q12923; “below the threshold” with RGS3, P49796-9; “below the threshold” with SHROOM3, Q8TF72. Further, the pKd result with TJP3_1, O95049 was “below the threshold”; with PDZD4, Q76G19 it was 4.14; in the experiment with TJP3_2, O95049, “below the threshold”; with RGS12, O14924 it was “below the threshold”; with NHERF2_1, Q15599, “below the threshold”; with PDZD2_1, O15018 it was 4.3. Further, the pKd result is “below the threshold” with PARD3_1, Q8TEW0; “below the threshold” with MAGI1_5, Q96QZ7; “below the threshold” with PDLIM4, P50479; “below the threshold” in the experiment with SIPA1L3, O60292; 4.37 with PARD3B_2, Q8TEW8; “below the threshold” with USH1C_2, Q9Y6N9. Moreover, the pKd entry was “below the threshold” with USH1C_1, Q9Y6N9; “below the threshold” with GRIP2_2, Q9C0E4; “below the threshold” with PDZRN3_2, Q9UPQ7; “below the threshold” in the experiment with GIPC3, Q8TF64; “below the threshold” with PTPN13_2, Q12923.
For STLTIFETAL [ABCC4, O15439], the pKd result with APBA3_2, O96018 is “below the threshold”; in the experiment with PDZD7_1, Q9H5P4 it was 4.25; in the experiment with PDZD2_5, O15018, “below the threshold”; in the experiment with PTPN13_4, Q12923, “below the threshold”; with RGS3, P49796-9 it was “below the threshold”; with SHROOM3, Q8TF72, “below the threshold”. For the same molecule, the pKd result with TJP3_1, O95049 was “below the threshold”; in the experiment with PDZD4, Q76G19, 4.08; with TJP3_2, O95049 it was “below the threshold”; with RGS12, O14924, “below the threshold”; with NHERF2_1, Q15599 it was 4.83; with PDZD2_1, O15018, 4.19. Further, the pKd result in the experiment with PARD3_1, Q8TEW0 was “below the threshold”; in the experiment with MAGI1_5, Q96QZ7 it was 5.11; with PDLIM4, P50479 it was “below the threshold”; with SIPA1L3, O60292, “below the threshold”; in the experiment with PARD3B_2, Q8TEW8, “below the threshold”; with USH1C_2, Q9Y6N9, “below the threshold”. Besides, the pKd in the experiment with USH1C_1, Q9Y6N9 was 4.33; with GRIP2_2, Q9C0E4, “below the threshold”; with PDZRN3_2, Q9UPQ7, “below the threshold”; with GIPC3, Q8TF64, 4.21; with PTPN13_2, Q12923, “below the threshold”.
